Laboratory results from patent publication US20150086555A1.

Assays:
Conditions in all cases: remark: other sources report otherwise
[1] = target: recombinant homotrimeric HA A/duck/Yangzhou/02/05 H8N4 (Influenza A virus A/duck/Yangzhou/02/2005(H8N4)); assay: protein microarray, purified IgG, trimeric HA
[2] = target: recombinant homotrimeric HA A/swine/Ontario/01911-2/99 H4N6 (Influenza A virus A/Swine/Ontario/01911-2/99 (H4N6)); assay: protein microarray, purified IgG, trimeric HA
[3] = target: recombinant soluble homotrimeric HA of A/Egypt/3300-NAMRU3/08 (H5N1) (Influenza A virus A/Egypt/3300-NAMRU3/2008(H5N1)); assay: HA microarray, BCC supernatant

B1: TCN-530 (5248_H10a) (antibody, V domains shown)
VH: QVQLVQSGAEVRKPGSSVKVSCKASGGPFMSYAIGWVRQAPGQGLEWMGGINPVFGRPHYAQKFQGRVTIATDDSTKTSYMELSSLTSEDTGMYYCASRYSRSSPGTFESWGQGTLVTVSS
VL: EIVMTQFPATLSVSPGERVTLSCRASQSVSNNLAWYQQKPGQPPRLLIYDASTRATGVPAKFSGTGSGTEFTLSISSLQSEDFAVYYCQQYHNWPPSYSFGLGTKLEIK
- Trimeric HA Binding: RLU [1]: 158 RLU
- Trimeric HA Binding: RLU [2]: 139 RLU
- Trimeric HA Binding: RLU [3]: 30400 RLU

B2: TCN-535 (5246_P19) (antibody, V domains shown)
VH: QVQLVQSGSEVKKPGTSVKVSCTASGSVFTNYGISWVRQAPGQGLEWMGGIIPLFGAAKYAQKFQGRVTITADESTKTVYMELSRLTSKDTAIYFCAKAPRVYEYYFDQWGQGTPVTVSS
VL: EIVLTQSPGTLSLSPGERATLSCRASQSVSSSQLAWYQQKPGQAPRLIIYGASTRATGIPDRFSGSGSGTDFTLTIGRLEPEDFAVFFCQQYSTSPPTFGQGTKVDFK
- Trimeric HA Binding: RLU [3]: 39400 RLU

B3: TCN-534 (5249_B02) (antibody, V domains shown)
VH: QVQLVQSGAEVKKPGSSVKVSCRESGGTFNGYTITWVRQAPGQGLEWMGGIIPMMGTVNYAQKLQGRVTITTDYFTKTAYMDLNNLRSEDTAMYYCVKIRYTGQQLLWGQGTLVTVSS
VL: DIQMTQSPSTLSASIGDRVTITCRASQSIASWLAWYQQKPGKAPKLLIYEAVNLESGVPSRFSGSGSGTDFTLTISSLQPDDFATYFCQHYGTISQTFGGGTKVEIK
- Trimeric HA Binding: RLU [3]: 41400 RLU

B4: TCN-536 (5095_N01) (antibody, V domains shown)
VH: QVQLQQWGAGLLKPSETLSLTCAVYGGSFSVSGYYWSWIRQPPGRGLEWIGEISHGGSTNYNPSLKSRVTISVDTTKNQFSLRLSSVTAADTAVYYCARGTDPDTEVYCRVGNCAAFDYWGQGSLVTVSS
VL: EIILAQSPGTLSLSPGERATLSCRASQFVSTRSLAWYQQRPGQAPRLLIYGASSRATGIPDRFSGSGSGTDFTLTISRLEPEDFAVYYCQHYGYSPRYAFGQGSKVEIK
- Trimeric HA Binding: RLU [1]: 251 RLU
- Trimeric HA Binding: RLU [2]: 126 RLU

B5: TCN-538 (3206_O17) (antibody, V domains shown)
VH: QITLKESGPTLVKPTQTLTLTCVFSGFSLSITGVRVGWIRQPPGKALEWLALISWDDEKHYSPSLQSRLTITKDTSKNQVVLTMTNLDPVDTATYYCARSTDRGHVLRYFGWMLPGDAFDVWGQGTMVTVSS
VL: DIVMTQSPDFLPVSLGERATINCKSSQRVLYSSNNKNYLAWYQLKPGQPPKLIIYWASTRESGVPDRFSGSGSGTEFTLTISSLQAEDVAVYYCQQYYSRPYTFGQGTKLEIK
- Trimeric HA Binding: RLU [3]: 23600 RLU

B6: TCN-539 (5056_A08) (antibody, V domains shown)
VH: QVQLVESGGGVVQPGRSLRLSCAASEITFITYAMHWVRQAPGKGLEWVALISDDGSNKFYADSVKGRFTISRDNSKNTLYLQMNSLRAEDTAAYYCAREGVYFDSGTYRGYFDYWGQETLVTVSS
VL: EIVLTQSPATLSLSPGERATLSCRASQSVSSYLAWYQQKPGQAPRLLIYDASNRATGIPARFSGSGSGTDFTLTISSLEPEDFAVYYCQQRSHWPPITFGQGTRLEIK
- Trimeric HA Binding: RLU [1]: 124 RLU
- Trimeric HA Binding: RLU [3]: 11400 RLU

B7: TCN-540 (5060_F05) (antibody, V domains shown)
VH: QVQLVQSGGGVVQPGRSLRLSCAASGFTFSSYAMHWVRQAPGKGLEWVAIISYDGNDQYYTDSVKGRFTISRDSSKVYLQMHRLRPEDTAVYYCAKEFETSGYFHGSFDYWGQGILVTVSS
VL: QSALTQPASVSGSPGQSITISCTGTSSDVGGYNYVSWYQQHPGKAPKLLIYEVTNWPSGVSNRFSGSKSGNTASLTISGLQAEDEADYYCSSYAGSSTWVFGGGTRVTVL
- Trimeric HA Binding: RLU [1]: 318 RLU
- Trimeric HA Binding: RLU [2]: 138 RLU
- Trimeric HA Binding: RLU [3]: 1970 RLU

B8: TCN-543 (5081_G23) (antibody, V domains shown)
VH: QVHLVQSGAEVRKPGDSVKVSCKTSGYTFSTYPVAWVRQVPGQGLEWMGWISTYNGNTNFAQNFQGRVTLTTDTTTNTAYMEVRSLKFDDTAVYYCARVEGSYRDFWNNQNRFDPWGQGTLVTVSS
VL: SYVLTQPPSVSVAPGQTARISCGGSNIGGKSVHWYQQKPGQAPVLVVYDDSGRPSGIPERFSGSNSGDTATLTISRVEAGDEADYFCQVWDNFGGVFGTGTKVTVL
- Trimeric HA Binding: RLU [1]: 119 RLU
- Trimeric HA Binding: RLU [2]: 169 RLU

B9: TCN-546 (5089_L08) (antibody, V domains shown)
VH: QVQLQQWGAGLLKPSETLSLTCGVYGGSLSDYYWSWIRQPPGKGLEWIGEINHSGGTNYNPSLKRRVTISVDTSKKQFSLKMNSVTAADTAVYYCARGTDPDTEVYCRAGNCAAFDFWGQGTLVTVSS
VL: EIVLTQSPGTLSLSPGERATLSCRASHFVIGRAVAWYQQKPGQAPRLLIYGASSRATGIPDRFSGSGSGTDFTLTISRLETEDFAVFYCQHYGSSPRYAFGQGTKLEIK
- Trimeric HA Binding: RLU [1]: 211 RLU
